According to publication PMC10030265, “The lipid linked oligosaccharide polymerase Wzy and its regulating co-polymerase, Wzz, from enterobacterial common antigen biosynthesis form a complex” (Open Biology, 2023):

Tests used:
[1] = target: WzyEPA-GST-distrepII (Pectobacterium atrosepticum) (UniProt Q6CZF1); experiment: cryo-EM structure; negative stain and single-particle cryo-EM of the WzyEPA : WzzEPA complex labelled with the IgG anti-strep tag II antibody; model at approximately 20 Å, C2 symmetry, dumbbell of two WzzEPA octamers
[2] = target: the molecule itself; experiment: as above
WzyEPA-distrepII = target: T1, WzyEPA-distrepII (Pectobacterium atrosepticum, UniProt Q6CZF1 1-463); experiment: quantitative immuno-dot blot; serial dilution of the co-purified complex on nitrocellulose, standard curves of each purified protein, HRP-coupled anti-His and anti-strep tag II, chemiluminescence; corrected for untagged Wzz; details: both partners purified
T1 construct: WzyE, ECA polymerase, Pectobacterium atrosepticum SCRI 1043 (ATCC BAA-672); cloned into a proprietary vector constructed by Huanting Liu; Predicted 57 kDa; the distrepII tag is TEV protease-cleavable; source: DDM-solubilised membranes; not shown: distrepII, C-terminal, kept
T1 sequence (looked up): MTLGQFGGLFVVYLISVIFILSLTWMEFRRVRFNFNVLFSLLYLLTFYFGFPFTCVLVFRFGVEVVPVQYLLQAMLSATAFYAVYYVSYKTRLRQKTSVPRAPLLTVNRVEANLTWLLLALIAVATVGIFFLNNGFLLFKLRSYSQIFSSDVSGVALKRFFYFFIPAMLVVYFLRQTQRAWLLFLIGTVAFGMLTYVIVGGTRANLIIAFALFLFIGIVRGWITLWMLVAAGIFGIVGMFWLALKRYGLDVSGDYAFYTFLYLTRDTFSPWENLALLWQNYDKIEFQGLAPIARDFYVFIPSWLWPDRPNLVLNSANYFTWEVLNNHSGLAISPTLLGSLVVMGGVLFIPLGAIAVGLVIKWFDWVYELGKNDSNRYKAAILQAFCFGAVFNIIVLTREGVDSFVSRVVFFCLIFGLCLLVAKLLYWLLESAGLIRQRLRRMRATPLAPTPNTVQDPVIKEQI

[3] = target: the molecule itself; experiment: cryo-EM structure; TEV-cleaved, SEC-purified WzzEPA : WzyEPA sample at 5 mg/ml in DDM; Titan Krios; C4 symmetry; 3.6 Å; only WzzEPA seen in the map

With “His6-WzzEPA (from UniProt Q6CZE3 1-348) (natural protein)” the stoichiometry N (WzzEPA per WzyEPA) [1] was 8.

B1: His6-WzzEPA (natural protein, Pectobacterium atrosepticum, UniProt Q6CZE3 1-348, looked up)
chain: MKSENLSTGNALIDNELDIRGLFRLLWRGKVWPIAIGLLFAVVALGYSYLVKQEWGATSITDKPTVNMLGGYYSQQQFLRNLDARSFSSPQPEQPSISAGAYDEFIMQLAAYDTRRDFWLQTDYYKQRLEGDEKADAALLDELVNNIQFTARDDGKKTNDSVKLVAETSSDSNTLLRQYVVFASQRAANHLNEEIKGAWAARTIFMKSQIKRQEAVAKAIYDREVRSVELALKIAQQQGISRSQTDTPADEIPASEMFLLGRPMLQARLETLQTSGPHYELDYDQNRAMLATLNVGPTLEASFQTYRYLRTPEEPVKRDSPRRAFLMVMWGAIGVLVGAGVALARRLR
notes: WzzE, polysaccharide co-polymerase of enterobacterial common antigen biosynthesis, Pectobacterium atrosepticum SCRI 1043 (ATCC BAA-672); cloned into pEHisTEV; Predicted 42 kDa; His6 tag is TEV protease-cleavable; The methods say that Wzz ran as a double band and that the lower band was not seen by the anti-His antibody (partly untagged); Isolated Wzz may have various oligomeric states; octamer in …
B1 was tested, and the “stoichiometry N” value [2] was 8 subunits in the oligomer and the “stoichiometry N” value (WzyEPA-distrepII) was 9.6 ± 1.8 His6-WzzEPA : WzyEPA-distrepII (molar ratio).

B2: WzzEPA (TEV protease cleaved, affinity tag removed) (natural protein, Pectobacterium atrosepticum, UniProt Q6CZE3 1-348, looked up)
chain: B1 chain
notes: WzzE, Pectobacterium atrosepticum SCRI 1043; residues I39-V337 modelled, residues 1-39 and 338-348 not visualized; also called full length WzzEPA; source: E. coli C43(DE3), co-expressed with WzyEPA; not shown: His6, N-terminal, cleaved
In the case of B2, the “stoichiometry N” value [3] is reported as 8 subunits in the oligomer.
